Laboratory results reported in patent US20210115426A1 (BOARD OF REGENTS OF THE UNIVERSITY OF OKLAHOMA, published 2021).
Non-standard residues stand in square brackets, D forms with d. No end group written: not given here. AEEA = NCCOCCOCC(=O)O

Experiments:
[1] = molecular target: T1, amyloid β1-42 (Aβ1-42) (UniProt P05067 672-713); assay: cell-based or functional assay
[2] = molecular target: T1, amyloid β1-42 (Aβ1-42); assay: ELISA, peptide coated at 5 µg/ml, 150 nM Aβ1-42 added, anti-Aβ antibody, A492 (FIG. 3)
Experimental: (§1) BSA was from Sigma Aldrich. […] Plate coating was done at room temperature for 2 hours with shaking and then at 4° C. overnight. Plates were washed three times in PBST (PBS+0.05% tween), then blocked with 3% BSA in PBST for 1 hour at room temperature with shaking. […] Plates were then washed 4 times with PBST and monoclonal mouse anti-amyloid precursor protein/amyloid beta antibody, purchased from Cell Signaling Technology was added at a 1:500 dilution in 1% BSA in PBST and incubated for 1 hour at room temperature with shaking. Plates were washed 4× in PBST and donkey anti mouse HRP-conjugated secondary antibody from Jackson ImmunoResearch Laboratories was added at 1:10,000 in PBST and incubated 1 hour at room temperature with shaking, then washed 4 times in PBST. […] Sulfuric acid (5N) was added to each well to stop the reaction, and the absorbance at 492 nm was read on a Biotek Synergy II plate reader.

[3] = molecular target: T1, amyloid β1-42 (Aβ1-42); assay: ELISA, peptide coated, Aβ1-42 added (FIG. 21)
Experimental: as §1

[4] = molecular target: T1, amyloid β1-42 (Aβ1-42); assay: ELISA, peptide coated, Aβ1-42 added, anti-Aβ antibody, absorbance at 492 nm (FIG. 21)
Experimental: as §1

[5] = molecular target: T1, amyloid β1-42 (Aβ1-42); assay: ELISA, peptide coated at 5 µg/ml, 150 nM Aβ1-42 added, anti-Aβ antibody, A492 (FIG. 2)
Experimental: as §1

T1 sequence (P05067 672-713 limits assumed): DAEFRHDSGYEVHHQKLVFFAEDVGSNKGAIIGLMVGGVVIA

B1: cathepsin G (CG), full-length (enzyme, human, UniProt P08311 21-244, looked up)
chain: IIGGRESRPHSRPYMAYLQIQSPAGQSRCGGFLVREDFVLTAAHCWGSNINVTLGAHNIQRRENTQQHITARRAIRHPQYNQRTIQNDIMLLQLSRRVRRNRNVNPVALPRAQEGLRPGTLCTVAGWGRVSMRRGTDTLREVQLRVQRDRQCLRIFGSYDPRRQICVGDRRERKAAFKGDSGGPLLCNNVAHGIVSYGKSSGVPPEVFTRVSSFLPWIRTTMRS
IC50 of inhibition of Aβ1-42 fibrillation (Thioflavin T fluorescence) [1]: 3.8 nM | fold increase of the fibrillation IC50 in the presence of chymostatin [1]: 17 fold | molar ratio CG/Aβ1-42 at the IC50 of fibrillation [1]: 0.00038 molar ratio

B2: cationic antimicrobial protein of 37 kDa (CAP37), full-length (enzyme, human, UniProt P20160 27-248, looked up)
chain: IVGGRKARPRQFPFLASIQNQGRHFCGGALIHARFVMTAASCFQSQNPGVSTVVLGAYDLRRRERQSRQTFSISSMSENGYDPQQNLNDLMLLQLDREANLTSSVTILPLPLQNATVEAGTRCQVAGWGSQRSGGRLSRFPRFVNVTVTPEDQCRPNNVCTGVLTRRGGICNGDGGTPLVCEGLAHGVASFSLGPCGRGPDFFTRVALFRDWIDGVLNNPGP
IC50 of inhibition of Aβ1-42 fibrillation (Thioflavin T fluorescence) [1]: 876 nM | fold increase of the fibrillation IC50 in the presence of PMSF [1]: 3.5 fold | molar ratio CAP37/Aβ1-42 at the IC50 of fibrillation [1]: 0.091 molar ratio

[AEEA][AEEA]RRRRGTRCQVAGWGSQRSGGRLSRFPRFVNVR [5RMP-modified CAP37-derived peptide 120-146 QR]
binding result [2]: binds

[AEEA][AEEA]RRRRGTRCQVAGWGSWRSGGRLSRFPRFVNVR [CAP37-derived peptide 120-146 WR 5RMP]
IC50 of inhibition of Aβ1-42 fibrillation (Thioflavin T fluorescence) [1]: ~1000 nM | molar ratio peptide/Aβ1-42 at the IC50 of fibrillation [1]: ~0.1 molar ratio

[AEEA][AEEA]RRRRNQGRHFCGGALIHARFVMTAASCFQR (cysteine pairing not given here, also called 20-44 CC 5RMP) [5RMP-modified CAP37-derived peptide 20-44 CC]
binding result [2]: binds

GTLCTVAGWGRVSMRRGTDTLRPRVQL [CG-derived mutant peptide CG119-144 E141PR]
binding result [3]: binds

GTLCTVAGWGSMRRGTDTLREVQL [CG-derived mutant peptide CG119-144 ΔR129V130]
binding result [4]: no binding

GTRCQVAGWGSQRSGGRLSRFPRFVNV [CAP37-derived peptide 120-146 QR (wild-type)]
binding result [5]: binds

GTRCQVAGWGSWRSGGRLSRFPRFVNV [CAP37-derived peptide 120-146 WR (mutant)]
IC50 of inhibition of Aβ1-42 fibrillation (Thioflavin T fluorescence) [1]: ~1000 nM | molar ratio peptide/Aβ1-42 at the IC50 of fibrillation [1]: ~0.1 molar ratio

GTLCTVAGWGRVSMRRGTDTLREVQL [CG-derived peptide CG119-144 (wild-type)]
binding result [3]: binds

GTLCTVAGWGRVSMRRGTRTLREVQL [CG-derived mutant peptide CG119-144 D137R]
IC50 of inhibition of Aβ1-42 fibrillation (Thioflavin T fluorescence) [1]: 3100 nM | molar ratio peptide/Aβ1-42 at the IC50 of fibrillation [1]: 0.33 molar ratio

NQGRHFCGGALIHARFVMTAASCFQ (also called CAP3720-44) [CAP37-derived peptide 20-44 CC (wild-type)]
binding result [5]: binds
